Measured values taken from publication PMC12440821, “ACAD10 and ACAD11 enable mammalian 4-hydroxy acid lipid catabolism” (Nature Structural & Molecular Biology, 2025).

B1: ACAD11 K* mutant (kinase-inactive mouse acyl-CoA dehydrogenase 11) (enzyme, UniProt Q80XL6 1-779, looked up)
chain: METDVTSDTVEVLPQHKFDLRSLEAYLNQHLPGFGSDSRAVLTVTQYRSGQSNPTFFLQKGSQAYVLRKKPPGSLLPKAHKIDREFKIQKALFSIGFPVAKPLLYCRDASVIGTEFYVMEHVQGRIFRDFSIPGVSSAERAAIYVSVAETLAWLHSLDIRSLKLDKYGTGVGYCKRQVSTWTKQYQASAHQSIPAMDQLSTWLMKNLPDSDSEECLVHGAFKLDNIVFHPKECRVIAVLDWELSTFGHPLTDLAHLSLFYYWPRTLPMINRGSHIPENTGIPLMEELISIYCHRRGIDPNLPNWNFFMALSFFKLAGISQGVYRRYLMGNNSSEDSFLTANTVQPLAETGLQLSKRTLRTTPPQADAKSQLFAQSRRGQEVLTRVKQFMKQHVFPAEKEVAEYYAQSGNSAEKWGHPLVIEKLKEMAKAEGLWNLFLPAVSGLSQVDYALIAEETGKCFFAPDVFNCQAPDTGNMEVLHLYGSEQQKKQWLEPLLRGDITSVFCMTEPNVSSSDATNIECTIQRDGGGYIVNGKKWWSSGAGNPKCKIAIVLGRTESPSASRHRQHSMILVPMDTPGVELIRPLSVFGYMDNMHGGHWEVHFNHVRVPASNLILGEGRGFEISQGRLGPGRIHHCMRTVGLAERILQIMCDRAVQREAFKKKLYEHEVVAHWIAKSRIAIEEIRLLTLKAAHSIDTLGSASARKEIAMIKVAAPKAVCKIADWAIQVHGGAGVSQDYPLANMYAIIRTLRLADGPDEVHLSAIAKMELQDQARRLTARM
notes: catalytic aspartate of the kinase domain replaced with alanine; only the ACAD domains were resolved in the map; Cloned in pE-SUMOstar with a 5' SUMO tag; tag removed with Ulp1; Sample held FAD and 100 uM 4-HV-CoA; also called kinase-dead mutant; source: E. coli B21-CodonPlus (DE3)RIPL, purified (Ni-NTA, cation exchange, size-exclusion chromatography); not shown: SUMO, N-terminal, cleaved
B2: ACAD11 A* mutant (ACAD-inactive mouse acyl-CoA dehydrogenase 11) (enzyme, UniProt Q80XL6 1-779, looked up)
chain: METDVTSDTVEVLPQHKFDLRSLEAYLNQHLPGFGSDSRAVLTVTQYRSGQSNPTFFLQKGSQAYVLRKKPPGSLLPKAHKIDREFKIQKALFSIGFPVAKPLLYCRDASVIGTEFYVMEHVQGRIFRDFSIPGVSSAERAAIYVSVAETLAWLHSLDIRSLKLDKYGTGVGYCKRQVSTWTKQYQASAHQSIPAMDQLSTWLMKNLPDSDSEECLVHGDFKLDNIVFHPKECRVIAVLDWELSTFGHPLTDLAHLSLFYYWPRTLPMINRGSHIPENTGIPLMEELISIYCHRRGIDPNLPNWNFFMALSFFKLAGISQGVYRRYLMGNNSSEDSFLTANTVQPLAETGLQLSKRTLRTTPPQADAKSQLFAQSRRGQEVLTRVKQFMKQHVFPAEKEVAEYYAQSGNSAEKWGHPLVIEKLKEMAKAEGLWNLFLPAVSGLSQVDYALIAEETGKCFFAPDVFNCQAPDTGNMEVLHLYGSEQQKKQWLEPLLRGDITSVFCMTEPNVSSSDATNIECTIQRDGGGYIVNGKKWWSSGAGNPKCKIAIVLGRTESPSASRHRQHSMILVPMDTPGVELIRPLSVFGYMDNMHGGHWEVHFNHVRVPASNLILGEGRGFEISQGRLGPGRIHHCMRTVGLAERILQIMCDRAVQREAFKKKLYEHEVVAHWIAKSRIAIEEIRLLTLKAAHSIDTLGSASARKEIAMIKVAAPKAVCKIADWAIQVHGGAGVSQDYPLANMYAIIRTLRLANGPDEVHLSAIAKMELQDQARRLTARM
notes: catalytic aspartate of the ACAD domain replaced with asparagine; kinase and ACAD domains both resolved; Cloned in pE-SUMOstar with a 5' SUMO tag; tag removed with Ulp1; Sample held FAD and 100 uM 4-PV-CoA; also called ACAD-dead mutant; source: E. coli B21-CodonPlus (DE3)RIPL, purified (Ni-NTA, cation exchange, size-exclusion chromatography); not shown: SUMO, N-terminal, cleaved

What was measured:
[1] = target: the molecule itself; experiment: cryo-EM structure; single-particle cryo-EM of ACAD11 K* incubated with 100 uM 4-HV-CoA; 50 mM HEPES, 50 mM NaCl, 2% glycerol, 50 uM FAD, pH 7.5; D2 symmetry imposed; 2.6 A
[2] = target: the molecule itself; experiment: cryo-EM structure; single-particle cryo-EM of ACAD11 A* incubated with 100 uM 4-PV-CoA; 50 mM HEPES, 50 mM NaCl, 2% glycerol, 50 uM FAD, pH 7.5; D2 symmetry imposed; 3.6 A

Protein | stoichiometry N [1] | stoichiometry N [2]
B1 | 4 | 
B2 |  | 4
